Source: patent US20030219846A1, “Assay for activity of the ActRIIB kinase” (Pfizer Inc., priority 2002, published 2003)
One block for each molecule: values may come before it.

Columns and labels:
his-catActRIIB kinase [1] = target: T1, his-catActRIIB kinase (Homo sapiens, UniProt Q13705); test: Autoradiographic kinase assay method (substrate phosphorylation); format: biochemical; conditions: 1 mg/ml target peptide or 2.5 μM MBP, 10 μM ATP, [32P]-ATP, 30 minutes, ambient temperature
T1 construct: His tag
Experimental: A 20 μl reaction mixture comprising 2.5 μg/ml his-catActRIIB kinase, 1 mg/ml target peptide or 2.5 μM myelin basic protein (MBP), 10 μM ATP, 10 μCi [^32P]y-ATP (6000 Ci/mmol), 1 mg/ml bovine serum albumin (BSA), and 5 mM sodium orthovanadate in 25 mM HEPES (pH 7.3) was run for 30 minutes at ambient temperature. The reaction was stopped by adding ⅓ volume of 3× Laemmli buffer with β-mercaptoethanol and trace bromphenol blue (188 mM Tris pH 6.8, 3% SDS, 24% glycerol, 25% v/v, β-mercaptoethanol). The stopped reaction was loaded directly onto a 18% polyacrylamide/tris/glycine gel without boiling. The gel was run at about 100 volts to permit proper separation, washed for five minutes in water, and equilibrated for five minutes in semi-dry blotting buffer (48 mM Tris base, 39 mM glycine, 20% methanol, 0.375% SDS). Reaction products were then blotted onto a nitrocellulose filter for 48 minutes at 20 volts in a Bio-Rad semi-dry blotting apparatus and visualized and/or quantitated by autoradiography.

his-catActRIIB kinase [2] = target: T1, his-catActRIIB kinase; test: Scintillation method kinase assay (TCA precipitation, filter plate); format: biochemical; conditions: target peptide 176 μM or MBP 2 μM, 10 μM ATP, [33P]-ATP, 80 min, room temperature
Experimental: A series of reaction mixtures comprising 25 mM HEPES (pH 7.3), 3 mM MgCl2, 1 mM MnCl2, 0.1 mM EDTA, 1 mM DTT, 0.2 mM sodium orthovanadate, 100 μg/ml BSA, 10 μM ATP, 0.25 μCi [^33P]y-ATP, and 16.5 μg/ml his-catActRIIB kinase was run in a total of 100 μl directly in a Durapore (Millipore) filter plate for 80 min at room temperature. The reaction was stopped by addition of an equal volume of ice cold TCA (10% or 25% v/v). After one hour at 4° C., the precipitate was collected under vacuum. The precipitate was washed five times with cold TCA. After drying overnight, scintillant was added to the well and plates counted in a Microbeta 1450 Trilux in the Paralux mode. Different reactions included either the target peptide (176 μM), MBP (2 μM), or no substrate.

target peptide = target: T2, target peptide
T2 chain: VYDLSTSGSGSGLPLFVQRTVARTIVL

phosphorylation of substrate, labelled band visualized by autoradiography (his-catActRIIB kinase [1]): labelled target peptide
signal from labelled substrate by scintillation counting (his-catActRIIB kinase [2]): performed very well
Molecule: H2N-Val-Tyr-Asp-Leu-Ser-Thr-Ser-Gly-Ser-Gly-Ser-Gly-Leu-Pro-Leu-Phe-Val-Gln-Arg-Thr-Val-Ala-Arg-Thr-Ile-Val-Leu-COOH (H-VYDLSTSGSGSGLPLFVQRTVARTIVL-OH; not fully specified) [target peptide, 27 amino acid substrate peptide for the ActRIIB kinase assay]

B1: his-catActRIIB kinase (protein)
chain: YGHVDIHEDPGPPPPSPLVGLKPLQLLEIKARGRFGCVWKAQLMNDFVAVKIFPLQDKQSWQSEREIFSTPGMKHENLLQFIAAEKRGSNLEVELWLITAFHDKGSLTDYLKGNIITWNELCHVAETMSRGLSYLHEDVPWCRGEGHKPSIAHRDFKSKNVLLKSDLTAVLADFGLAVRFEPGKPPGDTHGQVGTRRYMAPEVLEGAINFQRDAFLRIDMYAMGLVLWELVSRCKAADGPVDEYMLPFEEEIGQHPSLEELQEVVVHKKMRPTIKDHWLKHPGLAQLCVTIEECWDHDAEARLSAGCVEERVSLIRRSVNGTTSDCLVSLVTSVTNVDLPPKESSI
phosphorylation of substrate, [32P]ATP autoradiography after gel electrophoresis and blotting (target peptide): In the reaction mixture comprising target peptide, bands were visualized at 3 Kd and 40 Kd, corresponding to labelled target peptide and autophosphorylated his-catActRIIB kinase, respectively
phosphorylation of substrate, [33P]ATP, TCA precipitation on filter plate, scintillation counting (target peptide): the reaction performed very well with the target peptide as a substrate
phosphorylation of substrate, [32P]ATP autoradiography after gel electrophoresis and blotting (myelin basic protein): In the reaction mixture comprising MBP, bands were visualized at 18 Kd and 40 Kd, corresponding to labelled MBP and autophosphorylated his-catActRIIB kinase, respectively
phosphorylation of substrate, [33P]ATP, TCA precipitation on filter plate, scintillation counting (myelin basic protein): the reaction with MBP unexpectedly yields a negative result

phosphorylation of substrate, labelled band visualized by autoradiography (his-catActRIIB kinase [1]): labelled MBP
signal from labelled substrate by scintillation counting (his-catActRIIB kinase [2]): negative result
B2: MBP: Myelin Basic Protein, a commonly used substrate for kinase assays (protein, UniProt P02687 1-169, looked up)
Myelin basic protein: AAQKRPSQRSKYLASASTMDHARHGFLPRHRDTGILDSLGRFFGSDRGAPKRGSGKDGHHAARTTHYGSLPQKAQGHRPQDENPVVHFFKNIVTPRTPPPSQGKGRGLSLSRFSWGAEGQKPGFGYGGRASDYKSAHKGLKGHDAQGTLSKIFKLGGRDSRSGSPMARR
